The record followed here is IntAct's records for PubMed 34606829.

To fix the notation:
B1: ALK tyrosine kinase receptor (Homo sapiens), Q9UM73 (parent)
chain: MGAIGLLWLLPLLLSTAAVGSGMGTGQRAGSPAAGPPLQPREPLSYSRLQRKSLAVDFVVPSLFRVYARDLLLPPSSSELKAGRPEARGSLALDCAPLLRLLGPAPGVSWTAGSPAPAEARTLSRVLKGGSVRKLRRAKQLVLELGEEAILEGCVGPPGEAAVGLLQFNLSELFSWWIRQGEGRLRIRLMPEKKASEVGREGRLSAAIRASQPRLLFQIFGTGHSSLESPTNMPSPSPDYFTWNLTWIMKDSFPFLSHRSRYGLECSFDFPCELEYSPPLHDLRNQSWSWRRIPSEEASQMDLLDGPGAERSKEMPRGSFLLLNTSADSKHTILSPWMRSSSEHCTLAVSVHRHLQPSGRYIAQLLPHNEAAREILLMPTPGKHGWTVLQGRIGRPDNPFRVALEYISSGNRSLSAVDFFALKNCSEGTSPGSKMALQSSFTCWNGTVLQLGQACDFHQDCAQGEDESQMCRKLPVGFYCNFEDGFCGWTQGTLSPHTPQWQVRTLKDARFQDHQDHALLLSTTDVPASESATVTSATFPAPIKSSPCELRMSWLIRGVLRGNVSLVLVENKTGKEQGRMVWHVAAYEGLSLWQWMVLPLLDVSDRFWLQMVAWWGQGSRAIVAFDNISISLDCYLTISGEDKILQNTAPKSRNLFERNPNKELKPGENSPRQTPIFDPTVHWLFTTCGASGPHGPTQAQCNNAYQNSNLSVEVGSEGPLKGIQIWKVPATDTYSISGYGAAGGKGGKNTMMRSHGVSVLGIFNLEKDDMLYILVGQQGEDACPSTNQLIQKVCIGENNVIEEEIRVNRSVHEWAGGGGGGGGATYVFKMKDGVPVPLIIAAGGGGRAYGAKTDTFHPERLENNSSVLGLNGNSGAAGGGGGWNDNTSLLWAGKSLQEGATGGHSCPQAMKKWGWETRGGFGGGGGGCSSGGGGGGYIGGNAASNNDPEMDGEDGVSFISPLGILYTPALKVMEGHGEVNIKHYLNCSHCEVDECHMDPESHKVICFCDHGTVLAEDGVSCIVSPTPEPHLPLSLILSVVTSALVAALVLAFSGIMIVYRRKHQELQAMQMELQSPEYKLSKLRTSTIMTDYNPNYCFAGKTSSISDLKEVPRKNITLIRGLGHGAFGEVYEGQVSGMPNDPSPLQVAVKTLPEVCSEQDELDFLMEALIISKFNHQNIVRCIGVSLQSLPRFILLELMAGGDLKSFLRETRPRPSQPSSLAMLDLLHVARDIACGCQYLEENHFIHRDIAARNCLLTCPGPGRVAKIGDFGMARDIYRASYYRKGGCAMLPVKWMPPEAFMEGIFTSKTDTWSFGVLLWEIFSLGYMPYPSKSNQEVLEFVTSGGRMDPPKNCPGPVYRIMTQCWQHQPEDRPNFAIILERIEYCTQDPDVINTALPIEYGPLVEEEEKVPVRPKDPEGVPPLLVSQQAKREEERSPAAPPPLPTTSSGKAAKKPTAAEISVRVPRGPAVEGGHVNMAFSQSNPPSELHKVHGSRNKPTSLWNPTYGSWFTEKPTKKNNPIAKKEPHDRGNLGLEGSCTVPPNVATGRLPGASLLLEPSSLTANMKEVPLFRLRHFPCGNVNYGYQQQGLPLEAATAPGAGHYEDTILKSKNSMNQPGP
partner: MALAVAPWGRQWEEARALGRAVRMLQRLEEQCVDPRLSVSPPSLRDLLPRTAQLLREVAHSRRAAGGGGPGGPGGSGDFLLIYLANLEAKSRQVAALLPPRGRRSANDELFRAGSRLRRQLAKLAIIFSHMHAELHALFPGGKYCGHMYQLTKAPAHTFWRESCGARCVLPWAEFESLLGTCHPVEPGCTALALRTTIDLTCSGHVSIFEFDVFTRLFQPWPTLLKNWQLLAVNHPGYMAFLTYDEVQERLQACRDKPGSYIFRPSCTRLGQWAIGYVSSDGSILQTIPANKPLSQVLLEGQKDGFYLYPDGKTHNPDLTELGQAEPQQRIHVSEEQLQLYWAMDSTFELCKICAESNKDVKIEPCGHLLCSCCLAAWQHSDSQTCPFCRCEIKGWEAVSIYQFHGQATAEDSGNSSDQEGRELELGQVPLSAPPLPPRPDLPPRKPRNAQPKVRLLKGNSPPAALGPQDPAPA
B2: ALK tyrosine kinase receptor (Homo sapiens), Q9UM73 (parent)
chain: B1 chain
partner: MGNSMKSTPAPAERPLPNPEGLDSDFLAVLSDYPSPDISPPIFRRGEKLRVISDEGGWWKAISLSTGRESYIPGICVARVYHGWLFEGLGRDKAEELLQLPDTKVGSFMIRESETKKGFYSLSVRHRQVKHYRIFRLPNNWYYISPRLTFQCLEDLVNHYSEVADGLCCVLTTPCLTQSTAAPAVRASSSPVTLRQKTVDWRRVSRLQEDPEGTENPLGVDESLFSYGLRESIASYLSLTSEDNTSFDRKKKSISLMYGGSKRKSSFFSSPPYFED
B3: ALK tyrosine kinase receptor (Homo sapiens), Q9UM73 (parent)
chain: B1 chain
partner: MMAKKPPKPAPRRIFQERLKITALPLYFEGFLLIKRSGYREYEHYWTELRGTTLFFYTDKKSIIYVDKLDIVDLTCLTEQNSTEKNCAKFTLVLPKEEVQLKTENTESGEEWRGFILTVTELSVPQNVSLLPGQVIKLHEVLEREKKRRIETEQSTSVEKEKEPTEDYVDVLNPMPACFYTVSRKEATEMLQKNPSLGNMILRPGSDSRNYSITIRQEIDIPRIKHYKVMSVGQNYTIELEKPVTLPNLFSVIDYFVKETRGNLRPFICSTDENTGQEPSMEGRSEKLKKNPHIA
B4: ALK tyrosine kinase receptor (Homo sapiens), Q9UM73 (parent)
chain: B1 chain
partner: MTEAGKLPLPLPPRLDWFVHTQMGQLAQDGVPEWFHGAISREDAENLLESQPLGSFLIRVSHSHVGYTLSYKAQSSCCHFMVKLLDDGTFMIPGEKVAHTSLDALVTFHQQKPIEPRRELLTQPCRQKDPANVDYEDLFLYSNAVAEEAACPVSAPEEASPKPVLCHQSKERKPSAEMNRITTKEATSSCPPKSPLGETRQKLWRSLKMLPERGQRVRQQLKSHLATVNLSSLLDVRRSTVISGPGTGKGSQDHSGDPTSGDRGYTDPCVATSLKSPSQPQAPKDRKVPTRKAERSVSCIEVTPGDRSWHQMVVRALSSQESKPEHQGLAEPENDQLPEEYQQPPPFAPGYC
B5: ALK tyrosine kinase receptor (Homo sapiens), Q9UM73 (parent)
chain: B1 chain
partner: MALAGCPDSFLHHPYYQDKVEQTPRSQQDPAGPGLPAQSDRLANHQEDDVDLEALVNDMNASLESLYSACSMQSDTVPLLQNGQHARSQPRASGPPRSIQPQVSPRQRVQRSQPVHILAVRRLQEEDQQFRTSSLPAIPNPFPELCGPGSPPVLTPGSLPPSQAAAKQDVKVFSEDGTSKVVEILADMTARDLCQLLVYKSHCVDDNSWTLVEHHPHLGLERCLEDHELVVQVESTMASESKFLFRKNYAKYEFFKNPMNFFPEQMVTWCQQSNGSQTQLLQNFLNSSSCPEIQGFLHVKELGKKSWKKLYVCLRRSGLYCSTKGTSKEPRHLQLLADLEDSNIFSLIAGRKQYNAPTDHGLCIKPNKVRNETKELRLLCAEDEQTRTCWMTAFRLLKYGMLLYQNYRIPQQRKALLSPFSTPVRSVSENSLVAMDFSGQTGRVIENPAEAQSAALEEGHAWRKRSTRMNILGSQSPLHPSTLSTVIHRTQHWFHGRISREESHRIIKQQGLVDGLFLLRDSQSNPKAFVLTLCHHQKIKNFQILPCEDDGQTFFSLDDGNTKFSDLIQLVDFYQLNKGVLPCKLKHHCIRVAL
B6: ALK tyrosine kinase receptor (Homo sapiens), Q9UM73 (parent)
chain: B1 chain
partner: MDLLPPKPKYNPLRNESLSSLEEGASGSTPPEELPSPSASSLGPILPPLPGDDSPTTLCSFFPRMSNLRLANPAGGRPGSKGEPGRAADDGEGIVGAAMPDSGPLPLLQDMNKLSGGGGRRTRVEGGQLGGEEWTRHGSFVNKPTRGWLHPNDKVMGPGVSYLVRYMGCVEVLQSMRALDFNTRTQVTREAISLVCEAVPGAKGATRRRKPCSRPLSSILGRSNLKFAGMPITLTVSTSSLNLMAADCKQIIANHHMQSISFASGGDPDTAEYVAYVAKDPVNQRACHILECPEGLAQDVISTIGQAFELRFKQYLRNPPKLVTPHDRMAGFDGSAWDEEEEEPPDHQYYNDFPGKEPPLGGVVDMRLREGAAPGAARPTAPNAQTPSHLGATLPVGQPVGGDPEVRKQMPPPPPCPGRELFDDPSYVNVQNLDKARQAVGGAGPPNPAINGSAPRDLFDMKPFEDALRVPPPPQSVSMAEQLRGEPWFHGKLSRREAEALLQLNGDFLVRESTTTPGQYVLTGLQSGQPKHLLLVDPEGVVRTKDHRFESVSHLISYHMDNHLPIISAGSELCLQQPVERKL
B7: ALK tyrosine kinase receptor (Homo sapiens), Q9UM73 (parent)
chain: B1 chain
partner: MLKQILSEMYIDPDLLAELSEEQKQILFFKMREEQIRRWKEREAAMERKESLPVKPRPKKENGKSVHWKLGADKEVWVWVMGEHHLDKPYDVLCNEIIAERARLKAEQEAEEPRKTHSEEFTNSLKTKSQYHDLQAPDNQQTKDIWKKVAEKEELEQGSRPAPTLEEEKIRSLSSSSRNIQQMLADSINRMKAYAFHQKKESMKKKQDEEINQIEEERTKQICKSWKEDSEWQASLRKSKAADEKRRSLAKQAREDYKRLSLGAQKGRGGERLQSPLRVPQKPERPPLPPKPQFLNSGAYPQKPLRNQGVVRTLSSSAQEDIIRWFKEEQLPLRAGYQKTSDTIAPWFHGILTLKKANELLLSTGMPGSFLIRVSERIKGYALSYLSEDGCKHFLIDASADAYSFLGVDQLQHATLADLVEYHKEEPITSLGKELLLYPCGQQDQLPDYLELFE
B8: ALK tyrosine kinase receptor (Homo sapiens), Q9UM73 (parent)
chain: B1 chain
partner: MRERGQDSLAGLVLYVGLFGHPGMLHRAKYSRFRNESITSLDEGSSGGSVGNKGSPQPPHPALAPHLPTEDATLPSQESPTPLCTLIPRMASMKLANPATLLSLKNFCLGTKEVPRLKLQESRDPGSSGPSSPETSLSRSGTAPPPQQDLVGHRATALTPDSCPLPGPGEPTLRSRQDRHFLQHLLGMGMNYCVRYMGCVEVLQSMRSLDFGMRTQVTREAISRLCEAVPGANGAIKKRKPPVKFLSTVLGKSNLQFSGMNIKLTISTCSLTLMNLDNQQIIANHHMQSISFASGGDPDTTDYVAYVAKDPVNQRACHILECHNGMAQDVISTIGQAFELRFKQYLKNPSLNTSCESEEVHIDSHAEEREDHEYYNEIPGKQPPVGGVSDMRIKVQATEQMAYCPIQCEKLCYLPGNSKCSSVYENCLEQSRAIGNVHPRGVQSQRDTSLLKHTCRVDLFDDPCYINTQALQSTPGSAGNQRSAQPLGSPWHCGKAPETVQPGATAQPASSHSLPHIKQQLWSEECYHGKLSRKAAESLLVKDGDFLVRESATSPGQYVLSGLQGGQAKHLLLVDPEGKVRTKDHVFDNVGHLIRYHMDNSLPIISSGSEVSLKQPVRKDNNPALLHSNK

In the first assay the parent is B1. The conditions noted are these: with cblc_human CBLC.
In the case of I1250T, the “effect of a mutation on the interaction” value is “decreasing interaction strength”. Still for that read-out and setting: in the case of L1196M it was “increasing interaction strength”. Regarding F1245C, the “effect of a mutation on the interaction” value was “increasing interaction strength”.

The variants in a further assay derive from B2. The conditions noted are these: with slap1_human SLA.
As for F1245C, the “effect of a mutation on the interaction” value is “increasing interaction strength”. As to I1250T, the “effect of a mutation on the interaction” value is listed as “decreasing interaction strength”. On to L1196M, for which the “effect of a mutation on the interaction” value is reported as “increasing interaction strength”.

Another assay covers variants of B3. The conditions noted are these: with stap1_human STAP1, Q9ULZ2.
Take F1245C: the “effect of a mutation on the interaction” value is reported as “increasing interaction strength”. For L1196M, the “effect of a mutation on the interaction” value was “increasing interaction strength”.

Regarding I1250T, the “effect of a mutation on the interaction” value was “decreasing interaction strength”.

The next assay covers variants of B4. The conditions noted are these: with hsh2d_human HSH2D.
Regarding L1196M, the “effect of a mutation on the interaction” value is reported as “increasing interaction strength”.

I1250T: the “effect of a mutation on the interaction” value is “decreasing interaction strength”. F1245C: the “effect of a mutation on the interaction” value was “increasing interaction strength”.

In a further assay the parent is B5. To be noted: with grb10_human GRB10, Q13322.
For L1196M, the “effect of a mutation on the interaction” value is reported as “increasing interaction strength”. With F1245C, the “effect of a mutation on the interaction” value was “increasing interaction strength”. On to I1250T, for which the “effect of a mutation on the interaction” value was “decreasing interaction strength”.

Another assay covers variants of B6. To be noted: with shc1_human SHC1, P29353.
Consider L1196M, for which the “effect of a mutation on the interaction” value is “increasing interaction strength”. In the case of I1250T, the “effect of a mutation on the interaction” value is “decreasing interaction strength”. For F1245C, the “effect of a mutation on the interaction” value is “increasing interaction strength”.

Variants of B7 are the subject of another assay. The conditions noted are these: with sh24a_human SH2D4A.
On to I1250T, for which the “effect of a mutation on the interaction” value is given as “decreasing interaction strength”. On to L1196M, for which the “effect of a mutation on the interaction” value is reported as “increasing interaction strength”.

Consider F1245C, for which the “effect of a mutation on the interaction” value is “increasing interaction strength”.

Another assay covers variants of B8. To be noted: with shc4_human SHC4, Q6S5L8.
With L1196M, the “effect of a mutation on the interaction” value is listed as “increasing interaction strength”. Same read-out and setting: in the case of F1245C it was “increasing interaction strength”; in that of I1250T, “decreasing interaction strength”.
